Source: publication PMC7611467 (Journal of molecular biology, 2020)

Biological target: the molecule itself
Assay: SEC

Protein | binding result
W37only single-Trp mutant of MgtE (natural protein, Thermus thermophilus, UniProt Q5SMG8 1-450, looked up) MEEKLAVSLQEALQEGDTRALREVLEEIHPQDLLALWDELKGEHRYVVLTLLPKAKAAEVLSHLSPEEQAEYLKTLPPFRLREILEELSLDDLADALQAVRKEDPAYFQRLKDLLDPRTRAEVEALARYEEDEAGGLMTPEYVAVREGMTVEEVLRFLRRAAPDAETIYYIYVVDEKGRLKGVLSLRDLIVADPRTRVAEIMNPKVVYVRTDTDQEEVARLMADYDFTVLPVVDEEGRLVGIVTVDDVLDVLEAEATEDIHKLGAVDVPDLVYSEAGPVALFLARVRFLVILILTGMVTSSILQGFESVLEAVTALAFYVPVLLGTGGNTGNQSATLIIRALATRDLDLRDFRRVFLKEMGVGLLLGLTLSFLLVGKVYFDGHPLLLPVVGVSLVLIVFFANLVGAMLPFLLRRLGVDPALVSNPLVATLSDVTGLLIYLSVARLLLEAV | binds
W282only single-Trp mutant of MgtE (natural protein, Thermus thermophilus, UniProt Q5SMG8 1-450, looked up) MEEKLAVSLQEALQEGDTRALREVLEEIHPQDLLALFDELKGEHRYVVLTLLPKAKAAEVLSHLSPEEQAEYLKTLPPFRLREILEELSLDDLADALQAVRKEDPAYFQRLKDLLDPRTRAEVEALARYEEDEAGGLMTPEYVAVREGMTVEEVLRFLRRAAPDAETIYYIYVVDEKGRLKGVLSLRDLIVADPRTRVAEIMNPKVVYVRTDTDQEEVARLMADYDFTVLPVVDEEGRLVGIVTVDDVLDVLEAEATEDIHKLGAVDVPDLVYSEAGPVALWLARVRFLVILILTGMVTSSILQGFESVLEAVTALAFYVPVLLGTGGNTGNQSATLIIRALATRDLDLRDFRRVFLKEMGVGLLLGLTLSFLLVGKVYFDGHPLLLPVVGVSLVLIVFFANLVGAMLPFLLRRLGVDPALVSNPLVATLSDVTGLLIYLSVARLLLEAV | binds
W288only single-Trp mutant of MgtE (natural protein, Thermus thermophilus, UniProt Q5SMG8 1-450, looked up) MEEKLAVSLQEALQEGDTRALREVLEEIHPQDLLALFDELKGEHRYVVLTLLPKAKAAEVLSHLSPEEQAEYLKTLPPFRLREILEELSLDDLADALQAVRKEDPAYFQRLKDLLDPRTRAEVEALARYEEDEAGGLMTPEYVAVREGMTVEEVLRFLRRAAPDAETIYYIYVVDEKGRLKGVLSLRDLIVADPRTRVAEIMNPKVVYVRTDTDQEEVARLMADYDFTVLPVVDEEGRLVGIVTVDDVLDVLEAEATEDIHKLGAVDVPDLVYSEAGPVALFLARVRWLVILILTGMVTSSILQGFESVLEAVTALAFYVPVLLGTGGNTGNQSATLIIRALATRDLDLRDFRRVFLKEMGVGLLLGLTLSFLLVGKVYFDGHPLLLPVVGVSLVLIVFFANLVGAMLPFLLRRLGVDPALVSNPLVATLSDVTGLLIYLSVARLLLEAV | binds
W380only single-Trp mutant of MgtE (natural protein, Thermus thermophilus, UniProt Q5SMG8 1-450, looked up) MEEKLAVSLQEALQEGDTRALREVLEEIHPQDLLALFDELKGEHRYVVLTLLPKAKAAEVLSHLSPEEQAEYLKTLPPFRLREILEELSLDDLADALQAVRKEDPAYFQRLKDLLDPRTRAEVEALARYEEDEAGGLMTPEYVAVREGMTVEEVLRFLRRAAPDAETIYYIYVVDEKGRLKGVLSLRDLIVADPRTRVAEIMNPKVVYVRTDTDQEEVARLMADYDFTVLPVVDEEGRLVGIVTVDDVLDVLEAEATEDIHKLGAVDVPDLVYSEAGPVALFLARVRFLVILILTGMVTSSILQGFESVLEAVTALAFYVPVLLGTGGNTGNQSATLIIRALATRDLDLRDFRRVFLKEMGVGLLLGLTLSFLLVGKVYWDGHPLLLPVVGVSLVLIVFFANLVGAMLPFLLRRLGVDPALVSNPLVATLSDVTGLLIYLSVARLLLEAV | binds
W79only single-Trp mutant of MgtE (natural protein, Thermus thermophilus, UniProt Q5SMG8 1-450, looked up) MEEKLAVSLQEALQEGDTRALREVLEEIHPQDLLALFDELKGEHRYVVLTLLPKAKAAEVLSHLSPEEQAEYLKTLPPWRLREILEELSLDDLADALQAVRKEDPAYFQRLKDLLDPRTRAEVEALARYEEDEAGGLMTPEYVAVREGMTVEEVLRFLRRAAPDAETIYYIYVVDEKGRLKGVLSLRDLIVADPRTRVAEIMNPKVVYVRTDTDQEEVARLMADYDFTVLPVVDEEGRLVGIVTVDDVLDVLEAEATEDIHKLGAVDVPDLVYSEAGPVALFLARVRFLVILILTGMVTSSILQGFESVLEAVTALAFYVPVLLGTGGNTGNQSATLIIRALATRDLDLRDFRRVFLKEMGVGLLLGLTLSFLLVGKVYFDGHPLLLPVVGVSLVLIVFFANLVGAMLPFLLRRLGVDPALVSNPLVATLSDVTGLLIYLSVARLLLEAV | binds
W352only single-Trp mutant of MgtE (natural protein, Thermus thermophilus, UniProt Q5SMG8 1-450, looked up) MEEKLAVSLQEALQEGDTRALREVLEEIHPQDLLALFDELKGEHRYVVLTLLPKAKAAEVLSHLSPEEQAEYLKTLPPFRLREILEELSLDDLADALQAVRKEDPAYFQRLKDLLDPRTRAEVEALARYEEDEAGGLMTPEYVAVREGMTVEEVLRFLRRAAPDAETIYYIYVVDEKGRLKGVLSLRDLIVADPRTRVAEIMNPKVVYVRTDTDQEEVARLMADYDFTVLPVVDEEGRLVGIVTVDDVLDVLEAEATEDIHKLGAVDVPDLVYSEAGPVALFLARVRFLVILILTGMVTSSILQGFESVLEAVTALAFYVPVLLGTGGNTGNQSATLIIRALATRDLDLRDWRRVFLKEMGVGLLLGLTLSFLLVGKVYFDGHPLLLPVVGVSLVLIVFFANLVGAMLPFLLRRLGVDPALVSNPLVATLSDVTGLLIYLSVARLLLEAV | binds
